Data from patent US12454527B2, “Conjugate monomethyl auristatin E to obtain a composition for treatment of prostate cancer” (priority 2019, dated 2025).
Several values for one entry are separate records, joined by “and”; a condition that tells them apart may be missing. Identical values can stand only once. Like-named read-outs stand apart in the source and are kept apart here. Starred links: 1 amine or outer side, 2 acyl side, 3 side chain; linkers in the order of their positions; H or OH if unused. Non-standard residues stand in square brackets, D forms with d. Residues, ends and D or L forms follow the SMILES beside them. ξ: configuration not given here. *: point of attachment. GluureaLys(ε-3-ClBenzyl) = O=C(O)CC[C@H](NC(=O)N[C@@H](CCCCN(Cc1cccc(Cl)c1)*)C(=O)O)C(=O)O; Dolaproine = CO[C@@H]([C@@H]1CCCN1)[C@@H](C)C(=O)O; Dil = CC[C@H](C)[C@H](NC)[C@@H](CC(=O)O)OC; X1 = O=C(CCCc1cn(CCCN[*:1])nn1)[*:2]; PABC = O=C(OCc1ccc(N[*:1])cc1)[*:2]; X2 = C[C@@H](N*)[C@@H](O)c1ccccc1; Cit = NC(=O)NCCC[C@H](N)C(=O)O; Suc = O=C(CCC(=O)[*:2])[*:1]; NMeV = CN[C@H](C(=O)O)C(C)C; ξV = CC(C)C(N)C(=O)O; Ahx = NCCCCCC(=O)O

Assay: Pharmacokinetics in plasma of rabbits after a single injection; on T1/2: dose 0.81 mg/kg; on Vd: dose 0.81 mg/kg
Format: in vivo
Excerpt: The pharmacokinetics study for the Conjugate (I) product in plasma of rabbits and rats after a single injection.
The leporids and rodents are the standard targets for preclinical studies of potential drug products as well as determining the pharmacokinetic parameters. The rabbits and rats are recommended as test systems to study pharmacokinetic properties of pharmaceutical products by the regulatory documents (FIG. 7, FIG. 8).
[…] The pharmacokinetic data, determined from this number of test animals, are sufficient to obtain the primary quantitative characteristics of test product distribution and elimination and the calculation of descriptive statistics parameters.
• 1. Conjugate (1) • 2. Solubilizer Pluronic F127—in the amount, five-fold greater than the conjugate amount by weight. • 3, Diluent—Haemodes infusion solution. • Dimethyl sulfoxide—in the amount of 5% of the prepared volume. • Rabbit experiment (see Tables 5, 6), • Rat experiment (see Tables 7, 8).

[1] = male, Soviet Chinchilla, rabbit, plasma, rabbits N=6, read-out: Concentration in blood plasma, Geometr. mean
[2] = male, Soviet Chinchilla, rabbit, plasma, rabbits N=6, read-out: Concentration in blood plasma, Mean value
[3] = male, Soviet Chinchilla, rabbit, plasma, rabbits N=6, read-out: Concentration in blood plasma, Median
[4] = male, Soviet Chinchilla, rabbit, plasma, rabbits, read-out: Concentration in blood plasma (individual animals)

SMILES: CC[C@H](C)[C@@H]([C@@H](CC(=O)N1CCC[C@H]1[C@H](OC)[C@@H](C)C(=O)N[C@H](C)[C@@H](O)c1ccccc1)OC)N(C)C(=O)[C@@H](NC(=O)[C@H](C(C)C)N(C)C(=O)OCc1ccc(NC(=O)[C@H](CCCNC(N)=O)NC(=O)C(NC(=O)CCCc2cn(CCCNC(=O)[C@H](Cc3ccc(O)cc3)NC(=O)[C@H](Cc3ccccc3)NC(=O)CCC(=O)NCCCCCC(=O)N(CCCC[C@H](NC(=O)N[C@@H](CCC(=O)O)C(=O)O)C(=O)O)Cc3cccc(Cl)c3)nn2)C(C)C)cc1)C(C)C (stereo partly shown) [Conjugate (I)] ({GluureaLys(ε-3-ClBenzyl)-Ahx-Suc}-FY[X1][ξV][Cit][PABC][NMeV]V[Dil][Dolaproine]-X2)
- level at 4 h [1]: 2430 ng/mL
- level at 4 h [2]: 2520 ng/mL
- level at 4 h [3]: 2540 ng/mL
- level at 6 h [1]: 1510 ng/mL
- level at 6 h [2]: 1540 ng/mL
- level at 6 h [3]: 1620 ng/mL
- level at 8 h (male, Soviet Chinchilla, rabbit, plasma, rabbits N=6, 8.00 hour, read-out: Concentration in blood plasma, Geometr. mean): 1180 ng/mL
- level at 8 h (male, Soviet Chinchilla, rabbit, plasma, rabbits N=6, 8.00 hour, read-out: Concentration in blood plasma, Mean value): 1210 ng/mL
- level at 10 h [1]: 857 ng/mL
- level at 10 h [2]: 878 ng/mL
- level at 10 h [3]: 892 ng/mL
- level at 12 h [1]: 631 ng/mL
- level at 12 h [2]: 657 ng/mL
- level at 12 h [3]: 558 ng/mL
- C0 (male, Soviet Chinchilla, rabbit, plasma, rabbits N=6, read-out: C0, Geometr. mean): 10900 ng/mL
- C0 (male, Soviet Chinchilla, rabbit, plasma, rabbits N=6, read-out: C0, Mean value): 11100 ng/mL
- clearance (male, Soviet Chinchilla, rabbit, plasma, rabbits N=6, read-out: CI, Geometr. mean (converted)): 0.389 mL/min/kg
- clearance (male, Soviet Chinchilla, rabbit, plasma, rabbits N=6, read-out: CI, Mean value (converted)): 0.394 mL/min/kg
- clearance (male, Soviet Chinchilla, rabbit, plasma, rabbits N=6, read-out: CI, Median (converted)): 0.374 mL/min/kg
- level at 0.08 h (male, Soviet Chinchilla, rabbit, plasma, rabbits, 0.08 hour, read-out: Concentration in blood plasma (individual animals)): 9580 ng/mL
- level at 0.25 h (male, Soviet Chinchilla, rabbit, plasma, rabbits, 0.25 hour, read-out: Concentration in blood plasma (individual animals)): 10700 ng/mL
- level at 0.5 h (male, Soviet Chinchilla, rabbit, plasma, rabbits, 0.50 hour, read-out: Concentration in blood plasma (individual animals)): 7250 ng/mL
- level at 1 h (male, Soviet Chinchilla, rabbit, plasma, rabbits, 1.00 hour, read-out: Concentration in blood plasma (individual animals)): 5100 ng/mL
- level at 1.5 h (male, Soviet Chinchilla, rabbit, plasma, rabbits, 1.50 hour, read-out: Concentration in blood plasma (individual animals)): 4850 ng/mL
- level at 2 h (male, Soviet Chinchilla, rabbit, plasma, rabbits, 2.00 hour, read-out: Concentration in blood plasma (individual animals)): 3840 ng/mL
- level at 6 h [4]: 1310 ng/mL
- level at 8 h (male, Soviet Chinchilla, rabbit, plasma, rabbits, 8.00 hour, read-out: Concentration in blood plasma (individual animals)): 1360 ng/mL
- level at 10 h [4]: 859 ng/mL
- AUCt-∞/AUC0-∞, Geometr. mean (rabbits N=6): 11.364%
- AUCt-∞/AUC0-∞, Mean value (rabbits N=6): 12.690%
- AUCt-∞/AUC0-∞, Median (rabbits N=6): 13.29%
- C0, Median (rabbits N=6): 9880 ng/mL
- Kel, Geometr. mean (rabbits N=6): 0.160 h⁻¹
- Kel, Mean value (rabbits N=6): 0.170 h⁻¹
- Kel, Median (rabbits N=6): 0.153 h⁻¹
- Concentration in blood plasma, Geometr. mean (rabbits N=6, 1.50 hour): 5046 ng/mL
- Concentration in blood plasma, Median (rabbits N=6, 8.00 hour): 1195 ng/mL
- Concentration in blood plasma (individual animals) (rabbits, 0.08 hour): 9617 ng/mL
- Concentration in blood plasma (individual animals) (rabbits, 2.00 hour): 3781 ng/mL
- Concentration in blood plasma (individual animals) (rabbits, 3.00 hour): 3693 ng/mL
- AUC0-t (rabbits, individual animals): 39504 ng·h/mL and 21886 ng·h/mL and 33617 ng·h/mL and 28972 ng·h/mL and 28872 ng·h/mL
- AUC0-∞ (rabbits, individual animals): 42004 ng·h/mL and 26025 ng·h/mL and 39814 ng·h/mL and 36928 ng·h/mL and 30768 ng·h/mL
- AUCt-∞/AUC0-∞ (rabbits, individual animals): 11.01% and 5.95% and 15.90% and 15.57% and 21.54% and 6.16%
- C0 (rabbits, individual animals): 17049 ng/mL and 9815 ng/mL and 9947 ng/mL and 9624 ng/mL and 9582 ng/mL
- CI (rabbits, individual animals): 0.3827 mL/min/kg and 0.3213 mL/min/kg and 0.5187 mL/min/kg and 0.339 mL/min/kg and 0.3655 mL/min/kg and 0.4388 mL/min/kg
- Kel (rabbits, individual animals): 0.137 h⁻¹ and 0.234 h⁻¹ and 0.123 h⁻¹ and 0.168 h⁻¹ and 0.099 h⁻¹ and 0.256 h⁻¹
- MRT0-t (rabbits, individual animals): 3.14 h and 3.29 h and 3.88 h and 3.74 h and 3.46 h
- T1/2 (rabbits, individual animals): 5.06 h and 2.97 h and 5.63 h and 4.12 h and 7.01 h and 2.70 h
- Vd (rabbits, individual animals): 0.16766 L/kg and 0.08255 L/kg and 0.2526 L/kg and 0.12101 L/kg and 0.22174 L/kg and 0.1027 L/kg
